Source: the supplement of paper PMC12042874
± gives the uncertainty stated by the source.

experiment: amyloid nucleation score (Sup35N fusion, yeast selection) (log enrichment); library NNK1; higher = more nucleation; inactive = no reads after selection
Procedure, shortened: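 Plasmid inserts were Illumina-sequenced at input and output from psi-negative yeast expressing Sup35N fused to peptides of 20 random codons. The yeast were induced with 100 μM copper sulfate for 24 hours and grown 7 days at 30°C on medium lacking adenine and uracil, and sequences with under 100 input reads were excluded. Nucleation score is the DiMSum log enrichment of output over input reads, centred on the mode score of non-aggregating sequences.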

Row | Substance | amyloid nucleation score
1 | VEPSYMFGYVVDWEHMVLKS | -2.11 ± 2.4
2 | VEQSFTAAPFQDVLF | -0.38 ± 0.32
3 | VEVLWVEDGSQF | -0.559 ± 0.31
4 | VFAICGSTCVGEKGTWPGEG | -0.263 ± 1.4
5 | VFGAFSESLLYSR | 0.51 ± 0.35
6 | VFHFYILMNCESCVTGGVPV | 7.938 ± 0.054
7 | VFLHVES | 1.85 ± 0.59
8 | VFLMYRLMH | inactive
9 | VFNWTHPWLSQH | -0.047 ± 0.78
10 | VFRWRNKLRNNLCRGKYYWT | 2.08 ± 0.43
11 | VFSDTPALCIDGLKLFAMVR | -0.182 ± 0.3
12 | VFSIIRPGMASSLHGQVQIA | 1.28 ± 0.69
13 | VFSKNFRVVIFTSNRSLFNK | 0.595 ± 0.72
14 | VFVTGLCSEDVTIYSTM | -2.44 ± 2.4
15 | VFVVSVNHRMIVNFTSCLNV | inactive
16 | VFYKYRQGARYDFF | 0.227 ± 0.89
17 | VFYQLCDWYNFGF | 5.68 ± 0.1
18 | VGFRGVLQIPGLSFPEALVR | 0.024 ± 0.46
19 | VGICMWHN | 0.718 ± 0.21
20 | VGISMHFRSRENFQSN | inactive
21 | VGITDSNRVLILSGQIHGVM | 0.6 ± 0.46
22 | VGKELLLSLRYSNWVCLDWF | -0.715 ± 1.4

Row | Substance | amyloid nucleation score
23 | VGLISALANTGMFRTSNCVF | 0.426 ± 0.5
24 | VGRMPNGYVVGINIGLSRRL | -0.696 ± 1.7
25 | VGRNNASLHSDKNRWFGFGF | 1.49 ± 0.18
26 | VGRTNFYCYWFPCRSLDLLS | 5.8 ± 0.046
27 | VGSCCNQ | 7.591 ± 0.046
28 | VGSKVYMTSAAMYFVNRGFV | 6.11 ± 0.081
29 | VHIFCSTTCFFMNFMLIQNK | -0.045 ± 0.51
30 | VHNTRYSHVPNKKMRSVIRK | 1.44 ± 0.42
31 | VHTINRTQLYNIH | -0.215 ± 0.65
32 | VHWLNCRLLGSLWVVGANWL | inactive
33 | VICFWTLSRFYRGRD | -1.13 ± 0.62
34 | VIGKMDEVGSIVEFDSGIRV | 0.658 ± 0.47
35 | VIIRIIKFTCNSSLIIITKW | 0.694 ± 0.49
36 | VIIRRWHIVFCSRFMFPCNF | 0.297 ± 0.64
37 | VIPKGPSKTLNNFWYYAYHS | -0.327 ± 0.79
38 | VIPVFRGSSFA | -0.055 ± 0.66
39 | VISIGIGMDTTTRVGQMYMK | -0.115 ± 1.4
40 | VISPNSLTCCAH | -0.146 ± 0.93
41 | VITWEWFRFRRRFGKMEGCL | 1.24 ± 0.28
42 | VKFCCFGLLCELYSGHSGRM | 1.33 ± 0.15
43 | VKFMMRLDYYCPLSTVQTTA | -0.644 ± 0.36
44 | VKLLYVIISYVRVCCRMDQI | -0.501 ± 0.54

Row | Substance | amyloid nucleation score
45 | VKPLKHPSGYYAMRRFVYNI | -0.566 ± 1.2
46 | VKSGS | 0.21 ± 0.24
47 | VKTHSVFSMMVV | 0.558 ± 0.51
48 | VLCLHWWLRTILGPLLAYAN | inactive
49 | VLCPW | -0.283 ± 0.44
50 | VLDGVNNNILLCLISRWGVL | 4.46 ± 0.079
51 | VLDMKFKYNVPSLK | 5.41 ± 0.06
52 | VLFESIRWMSG | -0.142 ± 1.1
53 | VLGTLSMFYFRAYFRPAWLS | -0.278 ± 0.5
54 | VLISENNITNHNSHECLVCY | -1.02 ± 1.7
55 | VLIWPGRRNSARSYWSSSGL | 1.21 ± 0.66
56 | VLKDFYNDDKRFQRRL | 0.421 ± 0.3
57 | VLKTWVIDNKSVGEMCNLNG | 0.556 ± 0.85
58 | VLLIPMTKAKMKMSIW | 0.584 ± 0.34
59 | VLLTMWFNFFLLRNRGVVFS | 2.65 ± 0.08
60 | VLLVGDPDLPRKRRLRRIAE | 1.23 ± 0.62
61 | VLMMV | 1.28 ± 0.48
62 | VLQQGTSLTKYV | 0.509 ± 0.42
63 | VLRWYEDNPFC | 0.291 ± 0.32
64 | VLSDSDINMRLEKEFYVIIS | inactive
65 | VLSSDGGGFVYFRYSGYTCR | 0.253 ± 0.67
66 | VLSSGESIRNTAINVEVEHQ | 0.449 ± 0.38

Row | Substance | amyloid nucleation score
67 | VLSVGQESTMISESGFNTEN | -0.001 ± 0.55
68 | VLSVSCVRYISGVRERWYVL | 1.23 ± 0.6
69 | VLVFCVTMVRNYSWCIGWRI | 0.035 ± 0.44
70 | VLVGCLASQRVISENKGCKC | 0.722 ± 0.81
71 | VLWHGLVVRSGNVEIVRSMC | -0.175 ± 0.96
72 | VLWSCDAMWWVRIKSTYVWN | 0.495 ± 1.2
73 | VLWTLVKIPHFTPNIMFRYY | 0.053 ± 1.1
74 | VLYTTLHGFYHNCWLWLRYS | -0.191 ± 0.42
75 | VMCAGQESESIRGGYSEVNG | 1.17 ± 0.39
76 | VMGVLYSRADSVVEIGLLRV | -0.972 ± 1
77 | VMILNLIVDTRLRVSRHLHV | 2.88 ± 0.28
78 | VMLTPRDLGLVPIGLDHVRG | -0.236 ± 0.38
79 | VMPSSELYF | 0.349 ± 0.39
80 | VMRPFWMMMFYFYVEPEALS | -0.584 ± 0.95
81 | VMTWTLCRTRG | -0.275 ± 0.4
82 | VMVWHCRSATTWWKQVTMNL | -0.584 ± 2.1
83 | VNCISHGACMCRWFYDSGKK | 0.847 ± 0.38
84 | VNCSRYRGESASDNWSGALL | -0.186 ± 0.85
85 | VNDWALVLSNLDSNVLSSRT | 0.566 ± 0.24
